Assay results from US20240262894A1.

What was measured:
[1] = target: F protein of RSV B-type clinical isolates (on virus) (respiratory syncytial virus B-type clinical isolates); assay: cell-based or functional assay
[2] = target: post-fusion F protein (FΔFP) of RSV A2 strain (respiratory syncytial virus A2 strain) (UniProt P03420); assay: SPR (Biacore), F protein immobilised on CM5 chip, Fab as analyte
[3] = target: pre-fusion F protein DS-Cav1 of RSV A2 strain (respiratory syncytial virus A2 strain); assay: as above

| Substance | IC50 (ng/mL), neutralization of RSV B-type clinical isolates on Hep2 cells, flow cytometry [1] [ng/mL] | Kd [2] [nM] | Kd [3] [nM] |
| --- | --- | --- | --- |
| Palivizumab (antibody) | 1410 |  |  |
| Palivizumab Fab |  | 4.4 | 11.4 |
